# No end group written: not given here. *: point of attachment. FITC = O=C1OC2(c3ccc(O)cc3Oc3cc(O)ccc32)c2ccc(NC(=S)*)cc21
# B1: FITC tagged GYGRKKRRQRRR (TAT) alone (peptide)
# peptide: {FITC}-GYGRKKRRQRRR
# notes: Control peptide in the co-immunoprecipitation; also called TAT CTL; control peptide
# Target: T1, Synuclein-gamma (SNCG) (UniProt O76070 1-127)
# T1 construct: Intracellular protein in MCF7-SNCG cells; also called γ-synuclein; gamma synuclein
# Assay: co-immunoprecipitation with anti-SNCG antibody from treated MCF7-SNCG cell lysates, western blot with anti-FITC antibody
# T1 sequence (O76070 whole entry): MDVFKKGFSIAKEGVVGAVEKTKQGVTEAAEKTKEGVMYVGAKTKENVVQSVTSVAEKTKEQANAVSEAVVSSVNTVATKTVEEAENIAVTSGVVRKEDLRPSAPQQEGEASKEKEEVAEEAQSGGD
binder,measurement,value
B1,binding result,no binding
